Where two headings read alike, the source gives them in different places. Values belong to the molecule of their own block, whether it stands above or below them.
Target: T1, recombinant human SHP-2 (human, UniProt Q06124 1-593)
T1 construct: SHP-2, protein tyrosine phosphatase with two SH2 domains, human, recombinant; The supplier is named only in the SPR methods; source: bought: R&D Systems, 1894-SH-100
T1 sequence (looked up): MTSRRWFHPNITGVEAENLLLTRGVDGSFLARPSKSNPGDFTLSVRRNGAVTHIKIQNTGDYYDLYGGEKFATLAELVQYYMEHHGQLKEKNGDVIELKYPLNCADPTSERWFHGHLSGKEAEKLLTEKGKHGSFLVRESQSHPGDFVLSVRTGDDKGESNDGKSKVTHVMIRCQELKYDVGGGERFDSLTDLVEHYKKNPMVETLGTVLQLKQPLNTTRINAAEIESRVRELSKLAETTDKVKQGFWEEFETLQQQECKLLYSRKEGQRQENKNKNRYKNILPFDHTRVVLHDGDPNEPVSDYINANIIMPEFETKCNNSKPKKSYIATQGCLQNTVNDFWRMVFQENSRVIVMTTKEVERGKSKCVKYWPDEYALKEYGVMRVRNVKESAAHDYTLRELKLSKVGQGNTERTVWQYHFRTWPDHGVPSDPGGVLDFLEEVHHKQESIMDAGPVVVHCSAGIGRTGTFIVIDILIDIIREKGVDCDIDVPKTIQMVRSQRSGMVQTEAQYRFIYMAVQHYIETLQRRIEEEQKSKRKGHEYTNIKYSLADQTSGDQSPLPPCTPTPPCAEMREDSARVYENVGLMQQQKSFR
Experiment: ELISA; wells coated with SHP-2 (5 µg/mL, TBS pH 8) or BSA; GST:LRP1-ICD or PDGFRβ KD titrated in TBS, 0.5% BSA, 0.05% Tween 20, sodium orthovanadate, overnight at 4°C; detected with anti-GST or anti-PDGFRβ antibody; fit to a single class of sites

Kd: 18 nM
Molecule: phosphorylated GST:LRP1-ICD (LDL receptor-related protein 1 intracellular domain fused to glutathione S-transferase, tyrosine-phosphorylated) (domain or fragment)

Kd (both partners purified): 7.8 ± 1 nM
B1: phosphorylated PDGFRβ kinase domain (domain or fragment, UniProt P09619 558-1106, looked up)
chain: KKPRYEIRWKVIESVSSDGHEYIYVDPMQLPYDSTWELPRDQLVLGRTLGSGAFGQVVEATAHGLSHSQATMKVAVKMLKSTARSSEKQALMSELKIMSHLGPHLNVVNLLGACTKGGPIYIITEYCRYGDLVDYLHRNKHTFLQHHSDKRRPPSAELYSNALPVGLPLPSHVSLTGESDGGYMDMSKDESVDYVPMLDMKGDVKYADIESSNYMAPYDNYVPSAPERTCRATLINESPVLSYMDLVGFSYQVANGMEFLASKNCVHRDLAARNVLICEGKLVKICDFGLARDIMRDSNYISKGSTFLPLKWMAPESIFNSLYTTLSDVWSFGILLWEIFTLGGTPYPELPMNEQFYNAIKRGYRMAQPAHASDEIYEIMQKCWEEKFEIRPPFSQLVLLLERLLGEGYKKKYQQVDEEFLRSDHPAILRSQARLPGFHGLRSPLDTSSVLYTAVQPNEGDNDYIIPLPDPKPEVADEGPLEGSPSLASSTLNEVNTSSTISCDSPLEPQDEPEPEPQLELQVEPEPELEQLPDSGCPAPRAEAEDSFL
modifications: phosphotyrosine (autophosphorylated with ATP and MgCl2; sites not mapped here)
notes: PDGF receptor β (PDGFRβ), kinase domain (KD); as far as I recall the product is a tagged human cytoplasmic fragment reaching to the C-terminus, to be checked with the supplier; also called pPDGFRβ KD; phospho-PDGFRβ KD; source: bought: Millipore (14-463); phosphorylated by incubating the protein with 1 mM ATP and 1 mM MgCl2

Kd (both partners purified): 326 ± 68 nM
B2: unphosphorylated PDGFRβ kinase domain (domain or fragment, UniProt P09619 558-1106, looked up)
chain: B1 chain
notes: PDGF receptor β (PDGFRβ), kinase domain (KD); also called PDGFRβ KD; non-phosphorylated PDGFRβ KD; source: bought: Millipore (14-463)
